“And” between values parts separate entries of the source, which are not always exact repeats. Equal entries are not always repeated.

The target in assay [1] is BNP with deletion of aa 1-38 (BNP-Δ38) (influenza B virus (B/panama/45/1990)). Briefly: negative-stain electron microscopy.
Assay [2] concerns the target BNP with deletion of aa 1-66 (BNP-Δ66) (influenza B virus (B/panama/45/1990)). The experiment in a line: negative-stain electron microscopy.

As usually defined, the stoichiometry N is a count of units in the complex or per binding partner. “BNP with deletion of aa 1-38 (BNP-Δ38) (domain or fragment)”: the stoichiometry N in assay [1] was 4 and 5. With “BNP with deletion of aa 1-66 (BNP-Δ66) (domain or fragment)”, the stoichiometry N in assay [2] is 4 and 5.

(Values after publication PMC4569402.)
